Test results from article PMC2745200 (Biochimie, 2009).

Target: the molecule itself
Test: SEC

B1: human ω-amidase/Nit2 (nitrilase-like protein 2) (enzyme, UniProt Q9NQR4 1-276, looked up)
chain: MTSFRLALIQLQISSIKSDNVTRACSFIREAATQGAKIVSLPECFNSPYGAKYFPEYAEKIPGESTQKLSEVAKECSIYLIGGSIPEEDAGKLYNTCAVFGPDGTLLAKYRKIHLFDIDVPGKITFQESKTLSPGDSFSTFDTPYCRVGLGICYDMRFAELAQIYAQRGCQLLVYPGAFNLTTGPAHWELLQRSRAVDNQVYVATASPARDDKASYVAWGHSTVVNPWGEVLAKAGTEEAIVYSDIDLKKLAEIRQQIPVFRQKRSDLYAVEMKKP
stoichiometry N: 2
